PMC12484979 (Nature Communications, 2025)
Values belong to the molecule of their own block, whether it stands above or below them.

What was measured:
Experiment in all cases: cryo-EM structure
[1] = molecular target: CD20 (UniProt P11836)
[2] = molecular target: human β-tryptase, tetrameric (activated by enterokinase cleavage) (human) (UniProt Q15661)
[3] = molecular target: the molecule itself

stoichiometry N (Fab per CD20 dimer) [1]: 2
Molecule: Rituximab Fab, wild type (human-mouse chimeric)

stoichiometry N [2]: 4
Molecule: human β-tryptase, tetrameric (activated by enterokinase cleavage) (from UniProt Q15661 31-275) (enzyme)

B1: CD20 (natural protein)
chain: TQSFFMRESKTLGAVQIMNGLFHIALGGLLMIPAGIYAPICVTVWYPLWGGIMYIISGSLLAATEKNSRKCLVKGKMIMNSLSLFAAISGMILSIMDILNIKISHFLKMESLNFIRAHTPYINIYNCEPANPSEKNSPSTQYCYSIQSLFLGILSVMLIFAFFQELVIAGIVENEWKRTCSRPKSNIVLLSAEEKKEQTIEIKEEVVGLTETSSQPKNEEDIEIIPIQEEEEEETETNFPEPPQDQESSPIENDSSP
stoichiometry N [3]: 2
